This data set is described as follows: self-splicing fitness, log relative to wild type (ln ratio); higher = more splicing; Tetrahymena group I intron in knt gene, E. coli kanamycin selection, DiMSum; sequences stand for … in CUCUCU…GGAGGGAAAAGUUAUCAGGCAUGCACCUGGUAGCUAGUCUUUAAACCAAUAGAUUGCAUCGGUUUAAAAGGCAAGACCGUCAAAUUGCGGGAAAGGGGUCAACAGCCGUUCAGUACCAAGUCUCAGGGGAAACUUUGAGAUGGCCUUGCAAAGGGUAUGGUAAUAAGCUGACGGACAUGGUCCUAACCACGCAGCCAAGUCCUAAGUCAACAGAUCUUCUGUUGAUAUGGAUGCAGUUCACAGACUAAAUGUCGGUCGGGGAAGAUGUAUUCUUCUCAUAAGAUAUAGUCGGACCUCUCCUUAAUGGGAGCUAGCGGAUGAAGUGAUGCAACACUGGAGCCGCUGGGAACUAAUUUGUAUGCGAAAGUAUAUUGAUUAGUUUUGGAGUACUCGUGGUCG
The procedure, abridged:
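Fitness was computed with DiMSum as the error-weighted combination of replicate fold changes, kanamycin versus none, each normalised to wild type. The library randomised all eight intron nucleotides of the P1ex region, with the intron placed in the knt kanamycin-resistance gene on pET-22b(+) in E. coli BL21(DE3). Six replicate transformations were grown overnight at 37°C or 30°C on LB agar with or without 25 μg/mL kanamycin, plus 100 μg/mL carbenicillin, 50 μM IPTG and 0.2% rhamnose. Pooled colonies were amplicon-sequenced on an Illumina HiSeq 2500.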

± gives the uncertainty stated by the source.

Turning to GCAGAGCAAUAUUACGCGCG, the “self-splicing fitness (ln)” value was -2.8 ± 0.17 (30 °C) and -1.49 ± 0.14 (37 °C).
For the sequence GCAGAGCAAUAUUACGCGCU, the “self-splicing fitness (ln)” value (37 °C) was -2.13 ± 0.35.
Take GCAGAGCAAUAUUACGCGGG: the “self-splicing fitness (ln)” value (30 °C) was -3.58 ± 0.39 and the “self-splicing fitness (ln)” value (37 °C) is -2.24 ± 0.28.
The matching figures for GCAGAGCAAUAUUACGCGUU: -1.48 ± 0.11 and -2.09 ± 0.16.
GCAGAGCAAUAUUACGGAAC: for the setting “37 °C”, the “self-splicing fitness (ln)” value was -0.993 ± 0.17.
As to GCAGAGCAAUAUUACGGCUC, the “self-splicing fitness (ln)” value (30 °C) was -2.69 ± 0.37 and the “self-splicing fitness (ln)” value (37 °C) is -1.99 ± 0.46.
For GCAGAGCAAUAUUACGGGUA, the “self-splicing fitness (ln)” value was -3.16 ± 0.18 (30 °C) and -3.68 ± 0.33 (37 °C).
Consider GCAGAGCAAUAUUACGGUUA, for which the “self-splicing fitness (ln)” value is, setting by setting: (30 °C) -2.95 ± 0.17; (37 °C) -2.17 ± 0.16.
For GCAGAGCAAUAUUACGUAAG the same measures were -1.79 ± 0.16 and -1.88 ± 0.23.
The matching figures for GCAGAGCAAUAUUACGUACA: -2.86 ± 0.28 and -0.806 ± 0.24.
The matching figures for GCAGAGCAAUAUUACGUACG: -2.22 ± 0.45 and -1.77 ± 0.35.
Consider GCAGAGCAAUAUUACGUACU, for which the “self-splicing fitness (ln)” value was -3.98 ± 0.3 (30 °C) and -2.29 ± 0.32 (37 °C).
Consider GCAGAGCAAUAUUACGUCAC, for which the “self-splicing fitness (ln)” value (30 °C) is -3.67 ± 0.34 and the “self-splicing fitness (ln)” value (37 °C) is -2.48 ± 0.32.
For GCAGAGCAAUAUUACGUGAA the same measures were -3.15 ± 0.14 and -1.59 ± 0.19.
Regarding GCAGAGCAAUAUUACGUGAU, the “self-splicing fitness (ln)” value runs as follows: (30 °C) -2.24 ± 0.16; (37 °C) -1.5 ± 0.18.
Consider GCAGAGCAAUAUUACGUUAU, for which the “self-splicing fitness (ln)” value is -2.65 ± 0.46 (30 °C) and -2.44 ± 0.44 (37 °C).
The matching figures for GCAGAGCAAUAUUACGUUGU: -5.06 ± 0.46 and -3.02 ± 0.29.
For the sequence GCAGAGCAAUAUUACGUUUG, the “self-splicing fitness (ln)” value reads like this: (30 °C) -3.98 ± 0.27; (37 °C) -2.77 ± 0.25.
The matching figures for GCAUAGCAAUAUUACGAAAU: -1.98 ± 0.13 and -1.31 ± 0.12.
As to GCAUAGCAAUAUUACGACAG, the “self-splicing fitness (ln)” value by setting is: (30 °C) -3.41 ± 0.26; (37 °C) -2.71 ± 0.33.
The matching figures for GCAUAGCAAUAUUACGACGU: -0.0199 ± 0.12 and 0.152 ± 0.12.
The matching figures for GCAUAGCAAUAUUACGACUU: -0.481 ± 0.078 and -0.0367 ± 0.089.
In the case of GCAUAGCAAUAUUACGAGAU, the “self-splicing fitness (ln)” value is -3.61 ± 0.46 (30 °C) and -2.13 ± 0.33 (37 °C).
As for GCAUAGCAAUAUUACGAGGC, the “self-splicing fitness (ln)” value (30 °C) is -3.26 ± 0.43 and the “self-splicing fitness (ln)” value (37 °C) is -1.27 ± 0.36.
The matching figures for GCAUAGCAAUAUUACGCAAC: -3.96 ± 0.33 and -2.6 ± 0.37.
For GCAUAGCAAUAUUACGCACA the same measures were -0.886 ± 0.11 and 0.000212 ± 0.091.
With GCAUAGCAAUAUUACGCGCA, the “self-splicing fitness (ln)” value is, setting by setting: (30 °C) -1.09 ± 0.12; (37 °C) -0.397 ± 0.14.
The matching figures for GCAUAGCAAUAUUACGCGGC: -3.32 ± 0.33 and -2.38 ± 0.34.
For GCAUAGCAAUAUUACGCGGG the same measures were -3.23 ± 0.14 and -0.875 ± 0.11.
For GCAUAGCAAUAUUACGCUCG the same measures were -0.827 ± 0.11 and -0.165 ± 0.13.
In the case of GCAUAGCAAUAUUACGCUGU, the “self-splicing fitness (ln)” value (30 °C) was -3.06 ± 0.17 and the “self-splicing fitness (ln)” value (37 °C) is -1.69 ± 0.23.
For GCAUAGCAAUAUUACGGAUU the same measures were -2.81 ± 0.11 and -1.29 ± 0.097.
For GCAUAGCAAUAUUACGGCGU the same measures were -0.347 ± 0.091 and 0.0454 ± 0.089.
For GCAUAGCAAUAUUACGGCUG the same measures were -1.97 ± 0.16 and -1.22 ± 0.18.
For GCAUAGCAAUAUUACGGUAA, the “self-splicing fitness (ln)” value reads like this: (30 °C) -2.31 ± 0.16; (37 °C) -0.658 ± 0.15.
As for GCAUAGCAAUAUUACGGUAG, the “self-splicing fitness (ln)” value reads like this: (30 °C) -3.52 ± 0.26; (37 °C) -3.01 ± 0.3.
For GCAUAGCAAUAUUACGGUCU the same measures were -1.57 ± 0.098 and -0.521 ± 0.092.
For GCAUAGCAAUAUUACGGUGA the same measures were -0.491 ± 0.11 and 0.678 ± 0.13.
The matching figures for GCAUAGCAAUAUUACGUAUG: -2.85 ± 0.17 and -2.44 ± 0.26.
As for GCAUAGCAAUAUUACGUCAU, the “self-splicing fitness (ln)” value is -3.5 ± 0.16 (30 °C) and -1.89 ± 0.098 (37 °C).
For GCCAAGCAAUAUUACGAAUA the same measures were -2.96 ± 0.17 and -2.72 ± 0.18.
Consider GCCAAGCAAUAUUACGACUC, for which the “self-splicing fitness (ln)” value runs as follows: (30 °C) -0.25 ± 0.08; (37 °C) 0.136 ± 0.098.
On to GCCAAGCAAUAUUACGACUG, for which the “self-splicing fitness (ln)” value was -4.32 ± 0.23 (30 °C) and -1.94 ± 0.15 (37 °C).
For GCCAAGCAAUAUUACGACUU the same measures were -2.29 ± 0.15 and -1.68 ± 0.16.
The matching figures for GCCAAGCAAUAUUACGAUGA: -3.12 ± 0.19 and -1.66 ± 0.12.
For GCCAAGCAAUAUUACGCACC the same measures were -0.566 ± 0.22 and 0.932 ± 0.41.
Regarding GCCAAGCAAUAUUACGCCAC, the “self-splicing fitness (ln)” value (37 °C) is -1.25 ± 0.27.
Consider GCCAAGCAAUAUUACGCCUA, for which the “self-splicing fitness (ln)” value (30 °C) was -0.609 ± 0.16 and the “self-splicing fitness (ln)” value (37 °C) is -0.61 ± 0.18.
For the sequence GCCAAGCAAUAUUACGCGUG, the “self-splicing fitness (ln)” value is, setting by setting: (30 °C) -3.46 ± 0.11; (37 °C) -1.97 ± 0.1.
Take GCCAAGCAAUAUUACGCUCC: the “self-splicing fitness (ln)” value (30 °C) is -0.474 ± 0.14 and the “self-splicing fitness (ln)” value (37 °C) worked out at 0.717 ± 0.17.
Take GCCAAGCAAUAUUACGCUUC: the “self-splicing fitness (ln)” value by setting is: (30 °C) -2.75 ± 0.14; (37 °C) -1.17 ± 0.16.
The matching figures for GCCAAGCAAUAUUACGCUUU: -0.998 ± 0.051 and -1.18 ± 0.072.
For GCCAAGCAAUAUUACGGAGU the same measures were -0.992 ± 0.066 and -1.57 ± 0.09.
In the case of GCCAAGCAAUAUUACGGCCA, the “self-splicing fitness (ln)” value (30 °C) is -1.42 ± 0.21 and the “self-splicing fitness (ln)” value (37 °C) is -1.18 ± 0.25.
Turning to GCCAAGCAAUAUUACGGGCC, where the note is “37 °C”, the “self-splicing fitness (ln)” value is -2.13 ± 0.32.
For the sequence GCCAAGCAAUAUUACGGGGG, the “self-splicing fitness (ln)” value reads like this: (30 °C) -4.11 ± 0.19; (37 °C) -2.35 ± 0.14.
The matching figures for GCCAAGCAAUAUUACGGGGU: -4.5 ± 0.18 and -2.55 ± 0.14.
GCCAAGCAAUAUUACGGUCA: the “self-splicing fitness (ln)” value reads like this: (30 °C) -1.59 ± 0.078; (37 °C) -0.271 ± 0.067.
The matching figures for GCCAAGCAAUAUUACGGUUA: -0.632 ± 0.072 and -0.00086 ± 0.07.
For GCCAAGCAAUAUUACGUAGG, the “self-splicing fitness (ln)” value is, setting by setting: (30 °C) -3.32 ± 0.18; (37 °C) -1.78 ± 0.17.
As to GCCAAGCAAUAUUACGUCAG, the “self-splicing fitness (ln)” value by setting is: (30 °C) -3.6 ± 0.23; (37 °C) -2.73 ± 0.28.

Values taken from the supplement of paper PMC7877785.
